# According to paper PMC6315854, “Cloning, Expression and Characterization of a Novel Cold-adapted β-galactosidase from the Deep-sea Bacterium Alteromonas sp. ML52” (Marine Drugs, 2018):
# Tested on: O=[N+]([O-])c1ccccc1O[C@@H]1O[C@H](CO)[C@H](O)[C@H](O)[C@H]1O
# Assay: purified protein
# Details: 35 °C, 50 mM sodium phosphate pH 8, ONPG 0.1–5 mM
substance,measurement,value
recombinant Gal (β-galactosidase) (Alteromonas sp.),Km,0.14 mM
same,Vmax,465 µmol/min/mg
same,kcat,3690 s⁻¹
same,kcat/Km,2.63e+07 M⁻¹ s⁻¹
